Starred links: 1 amine or outer side, 2 acyl side, 3 side chain; linkers in the order of their positions; H or OH if unused. Non-standard residues stand in square brackets, D forms with d. Groups on a side chain read outwards from the residue. No end group written: not given here. *: point of attachment. C20 diacid = O=C(O)CCCCCCCCCCCCCCCCCCC(=O)*; C18 diacid = O=C(O)CCCCCCCCCCCCCCCCC(=O)*; γGlu = O=C(O)[C@H](CCC(=O)[*:2])N[*:1]; AEEA = NCCOCCOCC(=O)O; Aib = CC(C)(N)C(=O)O
Molecular target: rat CRF2R α receptor (rat, UniProt P47866 20-411)
Experiment: cell-based or functional assay

rat CRF2R α receptor, sequence (P47866 20-411): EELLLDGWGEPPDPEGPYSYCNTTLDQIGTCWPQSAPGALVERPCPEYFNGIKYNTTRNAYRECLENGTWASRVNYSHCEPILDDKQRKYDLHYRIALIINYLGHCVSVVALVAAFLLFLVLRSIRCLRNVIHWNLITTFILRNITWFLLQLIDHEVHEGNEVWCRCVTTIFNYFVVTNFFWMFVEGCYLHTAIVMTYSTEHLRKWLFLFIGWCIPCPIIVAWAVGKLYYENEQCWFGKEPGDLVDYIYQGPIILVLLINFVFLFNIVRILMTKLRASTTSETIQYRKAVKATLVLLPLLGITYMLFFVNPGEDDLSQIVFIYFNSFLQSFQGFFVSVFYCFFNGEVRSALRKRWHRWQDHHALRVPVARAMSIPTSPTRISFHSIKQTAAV

Binder | EC50 [nM], 0% HSA (cAMP, A7R5 cells) [nM]
Ac-IVLSLD[dV]PIKLK([AEEA-AEEA-γGlu-C18 diacid])QILLEQERQE[Aib]QREQAEKNKQILEQV-NH2 (SMILES CC[C@H](C)[C@H](NC(C)=O)C(=O)N[C@H](C(=O)N[C@@H](CC(C)C)C(=O)N[C@@H](CO)C(=O)N[C@@H](CC(C)C)C(=O)N[C@@H](CC(=O)O)C(=O)N[C@@H](C(=O)N1CCC[C@H]1C(=O)N[C@H](C(=O)N[C@@H](CCCCN)C(=O)N[C@@H](CC(C)C)C(=O)N[C@@H](CCCCNC(=O)COCCOCCNC(=O)COCCOCCNC(=O)CC[C@H](NC(=O)CCCCCCCCCCCCCCCCC(=O)O)C(=O)O)C(=O)N[C@@H](CCC(N)=O)C(=O)N[C@H](C(=O)N[C@@H](CC(C)C)C(=O)N[C@@H](CC(C)C)C(=O)N[C@@H](CCC(=O)O)C(=O)N[C@@H](CCC(N)=O)C(=O)N[C@@H](CCC(=O)O)C(=O)N[C@@H](CCCNC(=N)N)C(=O)N[C@@H](CCC(N)=O)C(=O)N[C@@H](CCC(=O)O)C(=O)NC(C)(C)C(=O)N[C@@H](CCC(N)=O)C(=O)N[C@@H](CCCNC(=N)N)C(=O)N[C@@H](CCC(=O)O)C(=O)N[C@@H](CCC(N)=O)C(=O)N[C@@H](C)C(=O)N[C@@H](CCC(=O)O)C(=O)N[C@@H](CCCCN)C(=O)N[C@@H](CC(N)=O)C(=O)N[C@@H](CCCCN)C(=O)N[C@@H](CCC(N)=O)C(=O)N[C@H](C(=O)N[C@@H](CC(C)C)C(=O)N[C@@H](CCC(=O)O)C(=O)N[C@@H](CCC(N)=O)C(=O)N[C@H](C(N)=O)C(C)C)[C@@H](C)CC)[C@@H](C)CC)[C@@H](C)CC)C(C)C)C(C)C) [peptide of SEQ ID NO: 159] | 15.6
Ac-IVLSLD[dV]PIKLK([AEEA-AEEA-γGlu-C18 diacid])QILLEQERQK[Aib]QREQAEKNKQILEQV-NH2 (SMILES CC[C@H](C)[C@H](NC(C)=O)C(=O)N[C@H](C(=O)N[C@@H](CC(C)C)C(=O)N[C@@H](CO)C(=O)N[C@@H](CC(C)C)C(=O)N[C@@H](CC(=O)O)C(=O)N[C@@H](C(=O)N1CCC[C@H]1C(=O)N[C@H](C(=O)N[C@@H](CCCCN)C(=O)N[C@@H](CC(C)C)C(=O)N[C@@H](CCCCNC(=O)COCCOCCNC(=O)COCCOCCNC(=O)CC[C@H](NC(=O)CCCCCCCCCCCCCCCCC(=O)O)C(=O)O)C(=O)N[C@@H](CCC(N)=O)C(=O)N[C@H](C(=O)N[C@@H](CC(C)C)C(=O)N[C@@H](CC(C)C)C(=O)N[C@@H](CCC(=O)O)C(=O)N[C@@H](CCC(N)=O)C(=O)N[C@@H](CCC(=O)O)C(=O)N[C@@H](CCCNC(=N)N)C(=O)N[C@@H](CCC(N)=O)C(=O)N[C@@H](CCCCN)C(=O)NC(C)(C)C(=O)N[C@@H](CCC(N)=O)C(=O)N[C@@H](CCCNC(=N)N)C(=O)N[C@@H](CCC(=O)O)C(=O)N[C@@H](CCC(N)=O)C(=O)N[C@@H](C)C(=O)N[C@@H](CCC(=O)O)C(=O)N[C@@H](CCCCN)C(=O)N[C@@H](CC(N)=O)C(=O)N[C@@H](CCCCN)C(=O)N[C@@H](CCC(N)=O)C(=O)N[C@H](C(=O)N[C@@H](CC(C)C)C(=O)N[C@@H](CCC(=O)O)C(=O)N[C@@H](CCC(N)=O)C(=O)N[C@H](C(N)=O)C(C)C)[C@@H](C)CC)[C@@H](C)CC)[C@@H](C)CC)C(C)C)C(C)C) [peptide of SEQ ID NO: 158] | 5.29
IVLSLD[dV]PIKLK(C18 diacid)QILLKQERQK[Aib]QREQAEKNKQILAQV-NH2 (N-terminus assumed; SMILES CC[C@H](C)[C@H](N)C(=O)N[C@H](C(=O)N[C@@H](CC(C)C)C(=O)N[C@@H](CO)C(=O)N[C@@H](CC(C)C)C(=O)N[C@@H](CC(=O)O)C(=O)N[C@@H](C(=O)N1CCC[C@H]1C(=O)N[C@H](C(=O)N[C@@H](CCCCN)C(=O)N[C@@H](CC(C)C)C(=O)N[C@@H](CCCCNC(=O)CCCCCCCCCCCCCCCCC(=O)O)C(=O)N[C@@H](CCC(N)=O)C(=O)N[C@H](C(=O)N[C@@H](CC(C)C)C(=O)N[C@@H](CC(C)C)C(=O)N[C@@H](CCCCN)C(=O)N[C@@H](CCC(N)=O)C(=O)N[C@@H](CCC(=O)O)C(=O)N[C@@H](CCCNC(=N)N)C(=O)N[C@@H](CCC(N)=O)C(=O)N[C@@H](CCCCN)C(=O)NC(C)(C)C(=O)N[C@@H](CCC(N)=O)C(=O)N[C@@H](CCCNC(=N)N)C(=O)N[C@@H](CCC(=O)O)C(=O)N[C@@H](CCC(N)=O)C(=O)N[C@@H](C)C(=O)N[C@@H](CCC(=O)O)C(=O)N[C@@H](CCCCN)C(=O)N[C@@H](CC(N)=O)C(=O)N[C@@H](CCCCN)C(=O)N[C@@H](CCC(N)=O)C(=O)N[C@H](C(=O)N[C@@H](CC(C)C)C(=O)N[C@@H](C)C(=O)N[C@@H](CCC(N)=O)C(=O)N[C@H](C(N)=O)C(C)C)[C@@H](C)CC)[C@@H](C)CC)[C@@H](C)CC)C(C)C)C(C)C) [peptide of SEQ ID NO: 182] | 0.59
Ac-IVLSLD[dV]PIHLK([AEEA-AEEA-γGlu-C18 diacid])QILLEQERQK[Aib]QREQAEKNKQILEQV-NH2 [peptide of SEQ ID NO: 163] | 1.5
IVLSLD[dV]PIKLK([AEEA-AEEA-γGlu-γGlu-C18 diacid])QILLKQARQK[Aib]QRAQAEKNKRILERV-NH2 (N-terminus assumed; SMILES CC[C@H](C)[C@H](N)C(=O)N[C@H](C(=O)N[C@@H](CC(C)C)C(=O)N[C@@H](CO)C(=O)N[C@@H](CC(C)C)C(=O)N[C@@H](CC(=O)O)C(=O)N[C@@H](C(=O)N1CCC[C@H]1C(=O)N[C@H](C(=O)N[C@@H](CCCCN)C(=O)N[C@@H](CC(C)C)C(=O)N[C@@H](CCCCNC(=O)COCCOCCNC(=O)COCCOCCNC(=O)CC[C@H](NC(=O)CC[C@H](NC(=O)CCCCCCCCCCCCCCCCC(=O)O)C(=O)O)C(=O)O)C(=O)N[C@@H](CCC(N)=O)C(=O)N[C@H](C(=O)N[C@@H](CC(C)C)C(=O)N[C@@H](CC(C)C)C(=O)N[C@@H](CCCCN)C(=O)N[C@@H](CCC(N)=O)C(=O)N[C@@H](C)C(=O)N[C@@H](CCCNC(=N)N)C(=O)N[C@@H](CCC(N)=O)C(=O)N[C@@H](CCCCN)C(=O)NC(C)(C)C(=O)N[C@@H](CCC(N)=O)C(=O)N[C@@H](CCCNC(=N)N)C(=O)N[C@@H](C)C(=O)N[C@@H](CCC(N)=O)C(=O)N[C@@H](C)C(=O)N[C@@H](CCC(=O)O)C(=O)N[C@@H](CCCCN)C(=O)N[C@@H](CC(N)=O)C(=O)N[C@@H](CCCCN)C(=O)N[C@@H](CCCNC(=N)N)C(=O)N[C@H](C(=O)N[C@@H](CC(C)C)C(=O)N[C@@H](CCC(=O)O)C(=O)N[C@@H](CCCNC(=N)N)C(=O)N[C@H](C(N)=O)C(C)C)[C@@H](C)CC)[C@@H](C)CC)[C@@H](C)CC)C(C)C)C(C)C) [peptide of SEQ ID NO: 174] | 0.42
IVLSLD[dV]PIKLK([AEEA-AEEA-γGlu-C20 diacid])QILLKQERQK[Aib]QREQAEKNKQILAQV-NH2 (N-terminus assumed; SMILES CC[C@H](C)[C@H](N)C(=O)N[C@H](C(=O)N[C@@H](CC(C)C)C(=O)N[C@@H](CO)C(=O)N[C@@H](CC(C)C)C(=O)N[C@@H](CC(=O)O)C(=O)N[C@@H](C(=O)N1CCC[C@H]1C(=O)N[C@H](C(=O)N[C@@H](CCCCN)C(=O)N[C@@H](CC(C)C)C(=O)N[C@@H](CCCCNC(=O)COCCOCCNC(=O)COCCOCCNC(=O)CC[C@H](NC(=O)CCCCCCCCCCCCCCCCCCC(=O)O)C(=O)O)C(=O)N[C@@H](CCC(N)=O)C(=O)N[C@H](C(=O)N[C@@H](CC(C)C)C(=O)N[C@@H](CC(C)C)C(=O)N[C@@H](CCCCN)C(=O)N[C@@H](CCC(N)=O)C(=O)N[C@@H](CCC(=O)O)C(=O)N[C@@H](CCCNC(=N)N)C(=O)N[C@@H](CCC(N)=O)C(=O)N[C@@H](CCCCN)C(=O)NC(C)(C)C(=O)N[C@@H](CCC(N)=O)C(=O)N[C@@H](CCCNC(=N)N)C(=O)N[C@@H](CCC(=O)O)C(=O)N[C@@H](CCC(N)=O)C(=O)N[C@@H](C)C(=O)N[C@@H](CCC(=O)O)C(=O)N[C@@H](CCCCN)C(=O)N[C@@H](CC(N)=O)C(=O)N[C@@H](CCCCN)C(=O)N[C@@H](CCC(N)=O)C(=O)N[C@H](C(=O)N[C@@H](CC(C)C)C(=O)N[C@@H](C)C(=O)N[C@@H](CCC(N)=O)C(=O)N[C@H](C(N)=O)C(C)C)[C@@H](C)CC)[C@@H](C)CC)[C@@H](C)CC)C(C)C)C(C)C) [peptide of SEQ ID NO: 173] | 0.83
Ac-IVLSLD[dV]PIELK([AEEA-AEEA-γGlu-C18 diacid])QILLEQERQK[Aib]QREQAEKNKQILEQV-NH2 (SMILES CC[C@H](C)[C@H](NC(C)=O)C(=O)N[C@H](C(=O)N[C@@H](CC(C)C)C(=O)N[C@@H](CO)C(=O)N[C@@H](CC(C)C)C(=O)N[C@@H](CC(=O)O)C(=O)N[C@@H](C(=O)N1CCC[C@H]1C(=O)N[C@H](C(=O)N[C@@H](CCC(=O)O)C(=O)N[C@@H](CC(C)C)C(=O)N[C@@H](CCCCNC(=O)COCCOCCNC(=O)COCCOCCNC(=O)CC[C@H](NC(=O)CCCCCCCCCCCCCCCCC(=O)O)C(=O)O)C(=O)N[C@@H](CCC(N)=O)C(=O)N[C@H](C(=O)N[C@@H](CC(C)C)C(=O)N[C@@H](CC(C)C)C(=O)N[C@@H](CCC(=O)O)C(=O)N[C@@H](CCC(N)=O)C(=O)N[C@@H](CCC(=O)O)C(=O)N[C@@H](CCCNC(=N)N)C(=O)N[C@@H](CCC(N)=O)C(=O)N[C@@H](CCCCN)C(=O)NC(C)(C)C(=O)N[C@@H](CCC(N)=O)C(=O)N[C@@H](CCCNC(=N)N)C(=O)N[C@@H](CCC(=O)O)C(=O)N[C@@H](CCC(N)=O)C(=O)N[C@@H](C)C(=O)N[C@@H](CCC(=O)O)C(=O)N[C@@H](CCCCN)C(=O)N[C@@H](CC(N)=O)C(=O)N[C@@H](CCCCN)C(=O)N[C@@H](CCC(N)=O)C(=O)N[C@H](C(=O)N[C@@H](CC(C)C)C(=O)N[C@@H](CCC(=O)O)C(=O)N[C@@H](CCC(N)=O)C(=O)N[C@H](C(N)=O)C(C)C)[C@@H](C)CC)[C@@H](C)CC)[C@@H](C)CC)C(C)C)C(C)C) [peptide of SEQ ID NO: 162] | 48.6

Source: US12679878B2, “CRF2 receptor agonists and their use in therapy” (SANOFI, priority 2020, dated 2026)
